This note sets out measurements from patent publication US12297265B2, “Antibody and use thereof” (SICHUAN KELUN-BIOTECH BIOPHARMACEUTICAL CO., LTD., priority 2018, dated 2025).

First the molecules themselves.
B1: 6B9.22: mouse anti-human Claudin18.2 monoclonal antibody; VH SEQ ID NO: 50, VL SEQ ID NO: 51 (antibody, V domains shown)
VH: QVQLQQSGAELVKPGASVKMSCKAFGYTFTSYPIEWMKQNHGKSLEWIGNFHPYNDDTKYNEKFKGKAKLTVEKSSSTVYLELSRLTSDDSAVYYCARTYYGNSFAYWGQGTLVTVSS
VL: DIVMTQSPSSLTVTAGEKVTMSCKSSQSLLNSGNQKNYLTWYQQKPGQPPKLLIYWASSRDSGVPHRFTGSGSGTDFTLTISSVQAEDLAFYYCQNDYFYPFTFGAGTKLELK
modifications: heavy chain variable region sequence of mouse antibody 6B9.22; light chain variable region sequence of mouse antibody 6B9.22
B2: 9C8.1: mouse anti-human Claudin18.2 monoclonal antibody; VH SEQ ID NO: 48, VL SEQ ID NO: 49 (antibody, V domains shown)
VH: QVQLQQSGAELVRPGSSVKISCKASGYAFSNYWMNWVKQRPGQGLEWIGQIYPGDGDTNYNGKFKGKATLTTDKSSSTAYMQLSSLTSEDSAVYFCARLYYGNSFAYWGQGTLVTVSS
VL: DIVMTQSPSSLTVTAGEKVTVSCKSSQSLLNSGNQKNYLTWYQQKPGQPPKLLIYWASTRESGVPDRFTGSGSGTDFTLTISSVQAADLAIYYCQNDYFYPFTFGGGTKLEIK
modifications: heavy chain variable region sequence of mouse antibody 9C8.1; light chain variable region sequence of mouse antibody 9C8.1
B3: 19H11.6: mouse anti-human Claudin18.2 monoclonal antibody; VH SEQ ID NO: 44, VL SEQ ID NO: 45 (antibody, V domains shown)
VH: EVMLVESGGGLVKPGGSLKLSCAASGFSFSNSAMSWVRQTPEKRLEGVATISSGDSFTYYPDTVKGRFTISRDNAKNSLYLQMSRLRSEDTAVYYCARQGYGNALDYWGQGTSVTVSS
VL: DIVMTQSPSSLTVTAGEKVTMTCKSSQSLLNSGNQKNYLTWYQQKPGQPPKLLIYWSSTRESGVPDRFTGSGSGTDFTLTISSVQAEDLAVYYCQNDYYYPLTFGAGTKLELK
modifications: heavy chain variable region sequence of mouse antibody 19H11.6; light chain variable region sequence of mouse antibody 19H11.6
B4: 2C6.9: mouse anti-human Claudin18.2 monoclonal antibody; VH SEQ ID NO: 3, VL SEQ ID NO: 4 (antibody, V domains shown)
VH: QVQLKESGPGLVAPSQSLSITCTVSGFSLTRYGVSWVRQPPGKGLEWLGVIWGDGNTNFHSFLKSRLSISKDSSKSQVFLKLNSLQTDDTATYYCARVNFGNALDYWGQGTSVTVSS
VL: DIVMTQSPSSLTVTAGEEVTMSCKSSQSLLNSGNQKNYLTWYQQKPGQPPKLLIYWASTRDSGVPDRFTGSGSGTDFTLTISSVQSEDLAVYYCQNDFIFPLTFGAGTKLELK
modifications: heavy chain variable region of mouse antibody 2C6.9; light chain variable region of mouse antibody 2C6.9
B5: 1E9.2: mouse anti-human Claudin18.2 monoclonal antibody; VH SEQ ID NO: 1, VL SEQ ID NO: 2 (antibody, V domains shown)
VH: EVMLVESGGGLVKPGGSLKLSCAASGFSFSNSAMSWVRQTPEKRLEGVATISSGDSYTYYPDSVKGRFTISRDNAKNSLYLQMSSLRSEDTAVYYCARQGYGNALDYWGQGTSVTVSS
VL: DIVMTQSPSSLTVTAGEKVTMSCKSSQSLLNSGNQKNYLTWYQQKPGQPPKLLIYWSSTRESGVPDRFTGSGSGTDFTLTISSVQAEDLAVYYCQNDYYYPLTFGAGTKLELK
modifications: heavy chain variable region of mouse antibody 1E9.2; light chain variable region of mouse antibody 1E9.2
B6: 16A9.11: mouse anti-human Claudin18.2 monoclonal antibody; VH SEQ ID NO: 46, VL SEQ ID NO: 47 (antibody, V domains shown)
VH: EVMLVESGGGLVKPGGSLKLSCAASGFSFSNSAMSWVRQTPEKRLEGVATISSGDSYTYYPDSVKGRFTISRDTAKNSLYLQMSSLRSEDTAVYYCTRQGYGNAMDYWGQGTSVTVSS
VL: DIVMTQSPSSLTVTAGEKVTMSCKSSQSLLNSGNQKNYLTWYQQKPGQPPKLLIYWSSTRESGVPDRFTGSGSGTDFTLTISSVQAEDLAVYYCQNDYYYPLTFGAGTKLELK
modifications: heavy chain variable region sequence of mouse antibody 16A9.11; light chain variable region sequence of mouse antibody 16A9.11
B7: 19G10.14: mouse anti-human Claudin18.2 monoclonal antibody; VH SEQ ID NO: 52, VL SEQ ID NO: 53 (antibody, V domains shown)
VH: QVQLKESGPGLVAPSQSLSITCTVSGFSFTSYGVHWVRQPPGKGLEWLGVIWAGGSTDYNAALMSRLSIRKDNSKSQVFLKMNSLQIADTAMYYCARDGHGKVGFDVWGAGTTVTVSS
VL: DIVMTQSPSSLSVSAGEKVTMNCKSSQSLLNSGNQKNYLAWYQQKPGQPPKLLIYGASTRESGVPDRFTGGGSGTDFTLTISSVQAEDLAIYYCQNDHFYPFTFGSGTKLEIK
modifications: heavy chain variable region sequence of mouse antibody 19G10.14; light chain variable region sequence of mouse antibody 19G10.14
B8: 1E9.2-hz41: humanized antibody of 1E9.2; VH SEQ ID NO: 32, VL SEQ ID NO: 33 (antibody, V domains shown)
VH: EVQLVESGGGLVKPGGSLRLSCAASGFSFSNSAMSWVRQAPGKGLEGVATISSGDSYTYYPDSVKGRFTISRDNAKNSLYLQMNSLRAEDTAVYYCARQGYGNALDYWGQGTLVTVSS
VL: DIVMTQSPDSLAVSLGERATINCKSSQSLLNSGNQKNYLTWYQQKPGQPPKLLIYWSSTRESGVPDRFSGSGSGTDFTLTISSLQAEDFAVYYCQNDYYYPLTFGGGTKVEIK
modifications: heavy chain variable region of humanized antibody 1E9.2hz41; light chain variable region of humanized antibody 1E9.2hz11/1E9.2hz21/1E9.2hz31/1E9.2hz41
B9: 1E9.2-hz21: humanized antibody of 1E9.2; VH SEQ ID NO: 30, VL SEQ ID NO: 33 (antibody, V domains shown)
VH: EVQLVESGGGLVKPGGSLRLSCAASGFSFSNSAMSWVRQAPGKGLEGVSTISSGDSYTYYADSVKGRFTISRDNAKNSLYLQMNSLRAEDTAVYYCARQGYGNALDYWGQGTLVTVSS
VL: DIVMTQSPDSLAVSLGERATINCKSSQSLLNSGNQKNYLTWYQQKPGQPPKLLIYWSSTRESGVPDRFSGSGSGTDFTLTISSLQAEDFAVYYCQNDYYYPLTFGGGTKVEIK
modifications: heavy chain variable region of humanized antibody 1E9.2hz21; light chain variable region of humanized antibody 1E9.2hz11/1E9.2hz21/1E9.2hz31/1E9.2hz41

The first assay concerns the target T1, human Claudin18.2 (Homo sapiens, UniProt P56856). In words: FACS affinity of mouse anti-human Claudin18.2 antibodies to Ba/F3-Claudin 18.2 cells. The assay is classed as binding. Details: expressed in transfected cells; host or cells: Ba/F3 (BaF/3, DSMZ ACC300), hygromycin-selected monoclonal line. The procedure:
The affinity of the candidates to Claudin18.2 was measured using FACS. Single hybridoma clone 1E9.2, 2C6.9, 6B9.22, 9C8.1, 16A9.11, 19G10.14 and 19H11.6 were cultured in serum-free medium and mouse antibodies were purified from 100 mL supernatant by protein A chromatography (MabSelect SuRe, GE). Ba/F3-Claudin18.1 and Ba/F3-Claudin18.2 cells were incubated with the purified mouse antibodies at various concentrations on ice for 30 min and mouse IgG was used as negative control (Thermo Fisher, Cat: 31903), followed by washing with FACS buffer (PBS+2% FBS) twice. The cells were then incubated with a fluorescent goat-anti-mouse secondary antibody (Jackson ImmunoResearch, Cat: 115-605-071) on ice for 30 min before FACS analysis.
As to B1, the “Max MFI (Max Mean Fluorescence Intensity)” value is 3.624 ×10^6.
B2: the “Max MFI (Max Mean Fluorescence Intensity)” value was 4.969 ×10^6.
Same read-out and setting: the figure for B3 is 6.008 ×10^6.
Still for that read-out and setting: the figure for B4 is 6.111 ×10^6.
Still for that read-out and setting: with B5 the figure was 5.085 ×10^6.
Turning to B6, the “Max MFI (Max Mean Fluorescence Intensity)” value is listed as 5.815 ×10^6.
The same measure, in the same setting: the figure for B7 is 3.501 ×10^6.

The target of another assay is T1, human Claudin18.2. Nature of the assay: Affinity of chimeric and humanized antibodies to Ba/F3-Claudin 18.2 cells (IntelliCyt). It is filed as binding. Details: expressed in transfected cells; host or cells: Ba/F3 (BaF/3, DSMZ ACC300), hygromycin-selected monoclonal line. The text has this:
In order to evaluate the anti-Claudin18.2 humanized antibodies, codon optimized cDNAs of the heavy chains and the light chains of the candidate humanized antibodies from Example 6 were synthesized and ligated into pcDNA3.4 (by Nanjing Genscript Biotech Corporation). Expi293F cells (purchased from Thermo Incorporation) were co-transfected with pcDNA3.4 coding the heavy chain and light chain of each antibody. The antibodies were purified from the supernatant using protein A (MabSelect SuRe, GE). The affinity of the humanized antibodies to Claudin18.2 was determined using Ba/F3-Claudin18.2 cells which over-expressed human Claudin18.2. Ba/F3-Claudin18.2 cells (60000 in 10 ul buffer) were incubated with purified humanized antibodies on ice for 30 min, followed by washing with buffer (PBS+2% FBS) twice and addition of Alexa647-labeled goat-anti-human IgG Fc antibody (1:500 dilution). The cells were incubated on ice for another 30 min and analyzed by IntelliCyt.
Turning to B8, the “Max MFI” value is on record as 11.28 ×10^6.
Same read-out and setting: the figure for B9 is 14.56 ×10^6.
